Tested on: rox sites (Floxed (rox)-STOP Fluc reporter) in HEK293 cells
Assay: luciferase assay of Dre-rox DNA recombination in HEK293 cells
Assay type: cell-based, human
Conditions: 5 ng plasmid, TMP 10 nM or 500 nM or DMSO, 24 or 48 hours
Experimental: For constructing the luciferase reporters detecting for the activities of Flp-FRT recombinase, VCre-Vlox recombinase and Dre-rox recombinase, the FRT site ([…]: SEQ ID No: 37), the Vlox site ([…]: SEQ ID No: 38), the rox site ([…]: SEQ ID No: 39), were inserted into HindIII and KpnI sites and ClaI and EcoRI sites in the pcDNA3.1 (+) vector of the luciferase reporter (of loxP-stop-loxP-Fluc).
For luciferase assay, HEK 293 cells were plated at 25,000 cells per well on a 96-well flat white microplate (Thermo Fisher Scientific), and were then cultured for 24 hours at 37° C. in 5% CO2. The cells were transfected with cDNAs encoding destabilized Cre along with the luciferase reporter (loxP-stop-loxP Fluc), using X-tremeGENE9 reagent (Merck Millipore) at 37° C. The total amount of DNA was 50 ng per well. Twenty-four hours after the transfection, TMP or DMSO was added into the cells, and the cells were further cultured for 24 hours or 48 hours. Just before the luciferase assay, the medium was replaced with Hanks' balanced salt solution (HBSS) (Thermo Fisher Scientific) containing 0.2 mM D-luciferin potassium salt. Bioluminescence measurement was performed for 1 second per well at room temperature using a Centro XS^3 LB 960 plate-reading luminometer (Berthold Technologies).

B1: SPEED-Dre: split Dre (a.a. 2-150 and 151-342), single DD on the N-terminal and C-terminal sides; SEQ ID No: 24 (protein)
chain: MVSKYPYDVPDYARSGGSGGMISLIAALAVDYVIGMENAMPWNLPADLAWFKRNTLNKPVIMGRHTWESIGRPLPGRKNIILSSQPSTDDRVTWVKSVDEAIAACGDVPEIMVIGGGRVIEQFLPKAQKLYLTHIDAEVEGDTHFPDYEPDDWESVFSEFHDADAQNSHSYCFEILERRGGSGGSGGKLVPKKKRKVGGSELIISGSSGGFLRNIGKEYQEAAENFMRFMNDQGAYAPNTLRDLRLVFHSWARWCHARQLAWFPISPEMAREYFLQLHDADLASTTIDKHYAMLNMLLSHCGLPPLSDDKSVSLAMRRIRREAATEKGERTGQAIPLRWDDLKLLDVLLGSGSGATNFSLLKQAGDVEENPGPLESRSERLVDLRNRAFLFVAYNTLMRMSEISRIRVGDLDQTGDTVTLHISHTKTITTAAGLDKVLSRRTTAVLNDWLDVSGLREHPDAVLFPPIHRSNKARITTTPLTAPAMEKIFSDAWVLLNKRDATPNKGRYRTWTGHSARVGAAIDMAEKQVSMVEIMQEGTWKKPETLMRYLRRGGVSVGANSRLMDSGGSGGSGGMISLIAALAVDYVIGMENAMPWNLPADLAWFKRNTLNKPVIMGRHTWESIGRPLPGRKNIILSSQPSTDDRVTWVKSVDEAIAACGDVPEIMVIGGGRVIEQFLPKAQKLYLTHIDAEVEGDTHFPDYEPDDWESVFSEFHDADAQNSHSYCFEILERR
modifications: MISC_FEATURE - HAtag; DOMAIN 21..179 Degradation Domain; SIGNAL 190..197 Nuclear Localization Signal; MISC_FEATURE - N-terminal side of Dre; MISC_FEATURE - P2A; MISC_FEATURE - C-terminal side of Dre; DOMAIN 575..733 Degradation Domain; Bacteriophage D6
background and TMP-dependent DNA recombination activity: results similar to those of SPEED-Cre

Reference: patent US20240409960A1, “METHOD FOR CONTROLLING PROTEIN FUNCTION” (The University of Tokyo, priority 2021, published 2024)
